B1: C044 (antibody, V domains shown)
VH: EVQLVESGGGLVQPGGSLRLSCAASGFTFSSYSMNWVRQAPGKGLEWVSYISSSSSTIYYADSVKGRFTISRDNAKNSLYLQMNSLRDEDTAVYYCAREAHDGALTDYGDYLNWFDPWGQGTLVTVSS
VL: SYELTQPPSVSVAPGKTARITCGGNNIGSKSVHWYQQKPGQAPVLVIYYDSDRPSGIPERFSGSNSGNTATLTISRVEAGDEADYYCQVWDSSSDHLYWVFGGGTKLTVL
B2: C044 (antibody, V domains shown)
VH: EVQLVESGGGLVQPGGSLRLSCAASGFTFSSYSMNWVRQAPGKGLEWVSYISSSSSTIYYADSVKGRFTISRDNAKNSLYLQMNSLRDEDTAVYYCAREAHDGALTDYGDYLNWFDPWGQGTLVTVSS
VL: SYELTQPPSVSVAPGKTARITCGGNNIGSKSVHWYQQKPGQAPVLVIYYDSDRPSGIPERFSGSNSGNTATLTISRVEAGDEADYYCQVWDSSSDHLYWVFGGGTKLTVL
B3: C045 (antibody, V domains shown)
VH: EVQLVESGGGLVQPGGSLRLSCAASGFTFSTYSMNWVRQAPGKGLEWVSYISSSSSTIHYADSVKGRFTISRDNAKNSLYLQMNSLRDEDTAVYYCAREAHDGALTDYGDYLNWFDPWGQGTLVTVSS
VL: SYELTQPPSVSVAPGKTARITCGGTNIGSKNVHWYQQKPGQAPVLVIYYDNDRPSGIPERFSGSNSGNTATLTISRVEAGDEADYYCQVWDTTSDHFYWVFGGGTKLTVL
B4: C045 (antibody, V domains shown)
VH: EVQLVESGGGLVQPGGSLRLSCAASGFTFSTYSMNWVRQAPGKGLEWVSYISSSSSTIHYADSVKGRFTISRDNAKNSLYLQMNSLRDEDTAVYYCAREAHDGALTDYGDYLNWFDPWGQGTLVTVSS
VL: SYELTQPPSVSVAPGKTARITCGGTNIGSKNVHWYQQKPGQAPVLVIYYDNDRPSGIPERFSGSNSGNTATLTISRVEAGDEADYYCQVWDTTSDHFYWVFGGGTKLTVL
B5: C043 (antibody, V domains shown)
VH: QLVQSGPEVKKPGTSVKVSCKASGFTFYNSAVQWVRQARGQRLEWVGWIVVGSGNTDYAQKFQERVTMTRDLSTNTAYMEVNSLRSEDTAVYYCAAPYCSGGTCLDGFDIWGQGTMVTVSS
VL: EIVLTQSPGTLSLSPGERGTLSCRASQSVRSNYLAWYKQRPGQAPRLLVYGASSRATGIPDRFSGSGSGTDFTLTISRLEPEDFAVYYCQQYGSSPWTFGQGTKVEIK
B6: C043 (antibody, V domains shown)
VH: QLVQSGPEVKKPGTSVKVSCKASGFTFYNSAVQWVRQARGQRLEWVGWIVVGSGNTDYAQKFQERVTMTRDLSTNTAYMEVNSLRSEDTAVYYCAAPYCSGGTCLDGFDIWGQGTMVTVSS
VL: EIVLTQSPGTLSLSPGERGTLSCRASQSVRSNYLAWYKQRPGQAPRLLVYGASSRATGIPDRFSGSGSGTDFTLTISRLEPEDFAVYYCQQYGSSPWTFGQGTKVEIK
B7: C522 (antibody, V domains shown)
VH: EVQLVESGGGLIQPGGSLRLSCAASEFIVSRNYMSWVRQAPGKGLEWVSVIYSGGSTFYADSVKGRFTISRDESKNTLYLQMNSLRAEDTAIYYCARDRGGGILDYWGQGTLVTVS
VL: DIQMTQSPSSLSASVGDRVTITCQASQDINIFLNWYQQKPGKAPKLLIYDASSLETGVPSRFSGSGSGTDFTFTISSLQPEDFATYYCQQYGNLPKYTFGQGTKLEIK
B8: C098 (antibody, V domains shown)
VH: EVQLVESGGGLIQPGGSLRLSCAASGFTVSSNYMSWVRQAPGKGLEWVSVIYSGGSTYYADSVKGRFTISRDNSKNTLYLQMNSLRAEDTAVYYCARDLYSSGGTDIWGQGTMVTVSS
VL: not shown
B9: C099 (antibody, V domains shown)
VH: EVQLVESGGGLIQPGGSLRLSCAASGITVSSNYMSWVRQAPGKGLEWVSVMYAGGSTFYADSVKGRFTISRDDSKNTLFLQMNSLRAEDTAIYYCARDLYSSGGTDIWGQGTMVTVSS
VL: EIVLTQSPGTLSLSPGERATLSCRASQSIGSSYLAWYQQKPGLAPRLLIYGASRRATGIPDKFSGSGSGADFTLTISRLEPEDFAVYYCQQYGSSPGTFGQGTKVEIK
B10: C098 (antibody, V domains shown)
VH: EVQLVESGGGLIQPGGSLRLSCAASGFTVSSNYMSWVRQAPGKGLEWVSVIYSGGSTYYADSVKGRFTISRDNSKNTLYLQMNSLRAEDTAVYYCARDLYSSGGTDIWGQGTMVTVSS
VL: not shown
B11: C099 (antibody, V domains shown)
VH: EVQLVESGGGLIQPGGSLRLSCAASGITVSSNYMSWVRQAPGKGLEWVSVMYAGGSTFYADSVKGRFTISRDDSKNTLFLQMNSLRAEDTAIYYCARDLYSSGGTDIWGQGTMVTVSS
VL: EIVLTQSPGTLSLSPGERATLSCRASQSIGSSYLAWYQQKPGLAPRLLIYGASRRATGIPDKFSGSGSGADFTLTISRLEPEDFAVYYCQQYGSSPGTFGQGTKVEIK
B12: C096 (antibody, V domains shown)
VH: EVQLVESGGGLVKPGGSLRLSCVASGFTFRNAWMNWVRQAPGKGLEWVGRIKANSDGGTIDYAEPVQGRFTISREDSRNSLYLQMNSLKTEDTAVYYCTTGPQYDDFGHSYIVDSWGPGTLVTVSS
VL: DIVMTQSPLSLPVTLGEPASISCRSSQSLLHSNGFHFLEWYLQKPGQSPQLLIYVGSNRASGVPDRFSGSGSGTDFTLKISRVEAEDVGVYYCMQTLQTPLTFGGGTKVEIK
B13: C049 (antibody, V domains shown)
VH: QVQLQESGPGLVKPSETLSLTCTVSGGSVSSGTFYWSWIRQPPGKGLEWIGYIHYSGSTNYNPSLKSRVTISVDTSKNQFSLRLSSVTAADTAVYYCARESFYYDRSGYYGSDAFDIWGQGTMVTVSS
VL: DIQMTQSPSTLSSSVGDRVTITCRASQNISRWLAWYQQKPGKAPKLLIYKASTLESGVPSRFSGSGSGTKFTLTISSLQPDDFATYYCQQYNSYLYTFGQGTKLEIK
B14: C521 (antibody, V domains shown)
VH: EVQLVESGGGLVRPGGSLTLSCVASGFTVGSNFMSWVRQAPGKGLEWVSLIYNSGGTHYADSVKGRFTISRDRSKNTLYLQMNSLRAEDTAIYYCANHGYYYYMDVWGKGTTVTVS
VL: QSALTQPASVSGSPGQSITISCTGTGSDIGAYNYVSWHQHHPGKAPKLIIYDVSNRPSGVSNRFSGSKSGNTASLTISGLQAEDEADYYCTSYTNTTTPWVFGGGTKVTVL
B15: C095 (antibody, V domains shown)
VH: VQLVEAGGGVVQPGRSLRLSCAASGLAFSIYGMHWVRQAPGKGLEWVAIVAQDGSKKYYADSVKGRFTISRDNSKNTLYLEMNSLRTEDTAVYYCVKEGRPSDTVVVVAFDYWGQGSLVTVSS
VL: DIQLTQSPSSLSASVGDRVTITCRASQSISNYLNWYQQKPGKAPKVIIYAASSLQSGVPSRFSGSGSGTDFTLTISSLQPEDFATYYCQQSHSIPRTFGQGTKVEIK
B16: C095 (antibody, V domains shown)
VH: VQLVEAGGGVVQPGRSLRLSCAASGLAFSIYGMHWVRQAPGKGLEWVAIVAQDGSKKYYADSVKGRFTISRDNSKNTLYLEMNSLRTEDTAVYYCVKEGRPSDTVVVVAFDYWGQGSLVTVSS
VL: DIQLTQSPSSLSASVGDRVTITCRASQSISNYLNWYQQKPGKAPKVIIYAASSLQSGVPSRFSGSGSGTDFTLTISSLQPEDFATYYCQQSHSIPRTFGQGTKVEIK
B17: C035 (antibody, V domains shown)
VH: EVQLVESGGGLVQPGGSLRLSCAASGFIFSSYWMTWVRQAPGKGLEWVASIKYNGNERNYVDSVKGRFTISRDNARNSLFLQLNNLGAEDTAVYYCARQPESTIWYYFDYWGQGTLVTVSS
VL: SYELTQPPSVSVSPGQTARVTCSGHALPDQYTYWYQQRPGRAPVLVIYVNNQRPSGIPDRFSATTSGTTVTLTISGVQAEDEADYYCQSADSSGSYVVFGGGTKLTVL
B18: C094 (antibody, V domains shown)
VH: QVQLQESGPGLVKPSETLSLTCNVSGVSISTDYWSWIRQPPGKGLEWIGYIYYSGNTKDYNPSLKSRVTISVDTSKNQFSLMLSSVTAADTAVYYCARHYDILTSLSWFDPWGQGTLVTVSS
VL: QSVLTQPPSVSAAPGQKVTISCSITNSNLGNIYVSWYQQLPGTAPKLLIYGNNKRPSGIPDRFSGSKSGTSATLGITGLQTGDEAHYYCGTWDSSLSANWVFGGGTKLTVL
B19: C097 (antibody, V domains shown)
VH: QVQLQESGPGLVKPSQTLSLTCTVSGGSISSGPYYWSWIRQHPGKGLEWIGYIYYSGSTYYNPSLKSRVTISVDTSKKQFSLNLNSVTAADTAVYYCARVWQYYDSTGSFDYWGQGTLVTVSS
VL: DIVMTQSPLSLPVTPGEPASISCRSSRGLLHSNGYNYLDWYLQKPGQSPQLLIYLGSNRASGVPDRFSGSGSVTDFTLNISRVEAEDVGVYYCMQALQTPFTFGPGTKVDIK
B20: C097 (antibody, V domains shown)
VH: QVQLQESGPGLVKPSQTLSLTCTVSGGSISSGPYYWSWIRQHPGKGLEWIGYIYYSGSTYYNPSLKSRVTISVDTSKKQFSLNLNSVTAADTAVYYCARVWQYYDSTGSFDYWGQGTLVTVSS
VL: DIVMTQSPLSLPVTPGEPASISCRSSRGLLHSNGYNYLDWYLQKPGQSPQLLIYLGSNRASGVPDRFSGSGSVTDFTLNISRVEAEDVGVYYCMQALQTPFTFGPGTKVDIK
B21: C048 (antibody, V domains shown)
VH: VQLQESGPGLVKPSETLSLTCAVSGGSVSSGNYYWNWIRQPPGKGLEWIGYIYYSGSTNYNPSLKSRVTISVDTSKNQFSLKLNSVTAADTAVYHCARETYYYDSSGYYISDAFDIWGQGTMVTVSS
VL: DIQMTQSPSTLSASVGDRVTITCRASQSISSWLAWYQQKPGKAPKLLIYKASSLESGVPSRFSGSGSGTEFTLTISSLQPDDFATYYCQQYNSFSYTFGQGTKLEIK

What was measured:
[1] = biological target: SARS-CoV-2 spike protein on HIV-1 pseudotyped particles (SARS-CoV-2, UniProt P0DTC2 14-1254); experiment: cell-based or functional assay
[2] = biological target: SARS-CoV-2 RBD (wild type) (SARS-CoV-2, UniProt P0DTC2 319-539); experiment: ELISA on coated RBD

Binder | Neutralization IC50 [1] [µg/mL] | Neutralization IC90 [1] [µg/mL] | EC50 [2] [µg/mL]
B1 | > 10 | > 10 | –
B2 | – | – | 1.82
B3 | > 10 | > 10 | –
B4 | – | – | 0.007
B5 | 0.0106 | 0.0744 | –
B6 | – | – | 0.0121
B7 | – | – | 0.00093
B8 | 0.479 | 4.25 | –
B9 | – | – | 0.00245
B10 | – | – | 0.0077
B11 | 0.0272 | 0.0861 | –
B12 | – | – | 0.00518
B13 | 0.0181 | 0.129 | –
B14 | – | – | 0.0069
B15 | 0.0113 | 0.0526 | –
B16 | – | – | 0.0011
B17 | – | – | 0.0152
B18 | – | – | 0.00167
B19 | 0.0096 | 0.0311 | –
B20 | – | – | 0.00345
B21 | 0.0622 | 0.523 | –
